Experiment [1] deals with T1, 4H855-bH.
T1 chain: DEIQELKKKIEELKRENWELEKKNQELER
The experiment can be described thus: two-hybrid library CCNG1.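 Further: natural log of median RNA to DNA barcode read ratio; higher means stronger binding.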

The target in experiment [2] is T2, 4H918-bH.
T2 chain: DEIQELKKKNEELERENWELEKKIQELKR
Briefly: two-hybrid library CCNG1.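 Further: natural log of median RNA to DNA barcode read ratio; higher means stronger binding.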

The target in experiment [3] is T3, 4H953-bH.
T3 chain: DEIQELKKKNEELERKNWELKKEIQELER
The experiment can be described thus: two-hybrid library CCNG1.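 Further: natural log of median RNA to DNA barcode read ratio; higher means stronger binding.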

The target of experiment [4] is T4, 4H968-bH.
T4 chain: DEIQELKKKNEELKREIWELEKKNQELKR
Briefly: two-hybrid library CCNG1.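 Further: natural log of median RNA to DNA barcode read ratio; higher means stronger binding.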

The target of experiment [5] is T5, P4A-bN.
T5 chain: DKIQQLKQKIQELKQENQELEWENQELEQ
The experiment can be described thus: two-hybrid library CCNG1.

For experiment [6], the target named is T6, 4H2444-bA.
T6 chain: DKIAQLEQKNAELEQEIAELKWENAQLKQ
Briefly: two-hybrid library CCNG1.

Experiment [7] concerns the target T7, 4H2518-bA.
T7 chain: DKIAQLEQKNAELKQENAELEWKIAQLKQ
Briefly: two-hybrid library CCNG1.

For experiment [8], the target named is T8, 4H2585-bA.
T8 chain: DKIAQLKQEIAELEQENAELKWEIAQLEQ
Briefly: two-hybrid library CCNG1.

For experiment [9], the target named is T9, 4H264-bA.
T9 chain: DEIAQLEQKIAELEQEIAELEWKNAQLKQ
The experiment can be described thus: two-hybrid library CCNG1.

For experiment [10], the target named is T10, 4H2760-bA.
T10 chain: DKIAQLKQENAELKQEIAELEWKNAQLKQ
The experiment can be described thus: two-hybrid library CCNG1.

The target of experiment [11] is T11, 4H2859-bA.
T11 chain: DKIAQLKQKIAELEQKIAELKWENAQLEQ
Briefly: two-hybrid library CCNG1.

Experiment [12] addresses T12, 4H2931-bA.
T12 chain: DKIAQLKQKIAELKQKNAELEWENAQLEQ
The experiment can be described thus: two-hybrid library CCNG1.

Experiment [13] has as its target T13, 4H3041-bA.
T13 chain: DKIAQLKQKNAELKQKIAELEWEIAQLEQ
Briefly: two-hybrid library CCNG1.

In experiment [14] the target is T14, 4H3297-bA.
T14 chain: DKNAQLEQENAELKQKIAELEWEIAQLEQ
The experiment can be described thus: two-hybrid library CCNG1.

Experiment [15] addresses T15, 4H3364-bA.
T15 chain: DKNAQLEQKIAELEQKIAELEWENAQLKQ
Briefly: two-hybrid library CCNG1.

For experiment [16], the target named is T16, 4H3381-bA.
T16 chain: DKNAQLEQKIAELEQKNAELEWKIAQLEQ
Briefly: two-hybrid library CCNG1.

The target in experiment [17] is T17, 4H349-bA.
T17 chain: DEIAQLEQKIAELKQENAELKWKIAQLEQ
Briefly: two-hybrid library CCNG1.

The target of experiment [18] is T18, 4H492-bA.
T18 chain: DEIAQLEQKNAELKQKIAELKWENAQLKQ
The experiment can be described thus: two-hybrid library CCNG1.

Experiment [19] addresses T19, 4H56-bA.
T19 chain: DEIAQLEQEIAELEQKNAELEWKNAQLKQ
Briefly: two-hybrid library CCNG1.

Experiment [20] addresses T20, 4H730-bA.
T20 chain: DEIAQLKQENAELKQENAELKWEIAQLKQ
Briefly: two-hybrid library CCNG1.

Experiment [21] concerns the target T21, 4H796-bA.
T21 chain: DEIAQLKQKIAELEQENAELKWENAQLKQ
The experiment can be described thus: two-hybrid library CCNG1.

Experiment [22] addresses T22, 4H932-bA.
T22 chain: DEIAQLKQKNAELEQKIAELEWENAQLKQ
The experiment can be described thus: two-hybrid library CCNG1.

For experiment [23], the target named is T23, 4H949-bA.
T23 chain: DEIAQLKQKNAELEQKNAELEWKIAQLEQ
Briefly: two-hybrid library CCNG1.

Experiment [24] has as its target T24, 4H2238-AA.
T24 chain: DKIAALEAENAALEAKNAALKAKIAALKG
Briefly: two-hybrid library CCmax.

Experiment [25] concerns the target T25, 4H2513-AA.
T25 chain: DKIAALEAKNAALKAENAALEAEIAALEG
The experiment can be described thus: two-hybrid library CCmax. Particulars: mean of both orientations.

In experiment [26] the target is T26, 4H2536-AA.
T26 chain: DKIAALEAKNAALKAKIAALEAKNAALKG
The experiment can be described thus: two-hybrid library CCmax. Particulars: mean of both orientations.

Experiment [27] concerns the target T27, 4H2608-AA.
T27 chain: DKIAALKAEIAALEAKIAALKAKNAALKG
Briefly: two-hybrid library CCmax. Particulars: mean of both orientations.

In experiment [28] the target is T28, 4H2614-AA.
T28 chain: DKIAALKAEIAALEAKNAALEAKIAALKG
The experiment can be described thus: two-hybrid library CCmax. Particulars: mean of both orientations.

For experiment [29], the target named is T29, 4H2726-AA.
T29 chain: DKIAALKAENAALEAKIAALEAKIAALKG
Briefly: two-hybrid library CCmax. Particulars: mean of both orientations.

Experiment [30] deals with T30, 4H2935-AA.
T30 chain: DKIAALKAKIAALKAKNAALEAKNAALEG
The experiment can be described thus: two-hybrid library CCmax. Conditions: mean of both orientations.

Experiment [31] concerns the target T31, 4H327-AA.
T31 chain: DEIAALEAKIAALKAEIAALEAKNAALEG
The experiment can be described thus: two-hybrid library CCmax. Conditions: mean of both orientations.

Experiment [32] has as its target T32, 4H3605-AA.
T32 chain: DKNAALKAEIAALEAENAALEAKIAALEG
Briefly: two-hybrid library CCmax. Particulars: mean of both orientations.

The target of experiment [33] is T33, 4H3625-AA.
T33 chain: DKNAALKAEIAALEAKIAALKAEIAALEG
The experiment can be described thus: two-hybrid library CCmax. Conditions: mean of both orientations.

The target of experiment [34] is T34, 4H3664-AA.
T34 chain: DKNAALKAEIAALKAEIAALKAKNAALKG
Briefly: two-hybrid library CCmax. Conditions: mean of both orientations.

Experiment [35] concerns the target T35, 4H369-AA.
T35 chain: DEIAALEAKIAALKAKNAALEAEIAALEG
The experiment can be described thus: two-hybrid library CCmax. Conditions: mean of both orientations.

The target in experiment [36] is T36, 4H3922-AA.
T36 chain: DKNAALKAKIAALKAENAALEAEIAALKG
Briefly: two-hybrid library CCmax. Particulars: mean of both orientations.

The target in experiment [37] is T37, 4H4033-AA.
T37 chain: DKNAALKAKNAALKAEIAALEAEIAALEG
The experiment can be described thus: two-hybrid library CCmax. Particulars: mean of both orientations.

For experiment [38], the target named is T38, 4H481-AA.
T38 chain: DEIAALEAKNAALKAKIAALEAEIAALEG
The experiment can be described thus: two-hybrid library CCmax. Particulars: mean of both orientations.

Experiment [39] has as its target T39, 4H55-AA.
T39 chain: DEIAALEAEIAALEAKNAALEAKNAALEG
Briefly: two-hybrid library CCmax. Particulars: mean of both orientations.

Experiment [40] addresses T40, 4H662-AA.
T40 chain: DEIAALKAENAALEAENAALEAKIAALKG
Briefly: two-hybrid library CCmax. Particulars: mean of both orientations.

B1: 4H855-bH (peptide)
chain: DEIQELKKKIEELKRENWELEKKNQELER
As to B1, the interaction score is -0.389 in [1]; -0.637 in experiment [2]; -1.14 in [3]; 0.133 in [4]; -0.185 in experiment [5].

B2: 4H2444-bA (peptide)
chain: DKIAQLEQKNAELEQEIAELKWENAQLKQ
Consider B2, for which the interaction score in experiment [6] was 1.3; in experiment [7] it was -0.678; in [8], 0.675; in [9] it was 0.179; in experiment [10] it was 1.15; in [11], -0.0526. Moreover, the interaction score was 0.114 in [12]; 0.922 in experiment [13]; 0.252 in [14]; -0.57 in experiment [15]; -0.537 in [16]; -0.457 in experiment [17]. The interaction score is 1.66 in [18]; -1.91 in experiment [19]; -0.297 in [20]; -0.412 in [21]; -1.36 in experiment [22]; -0.993 in experiment [23].

B3: 4H2238-AA (peptide)
chain: DKIAALEAENAALEAKNAALKAKIAALKG
As to B3, the interaction score is -0.902 in experiment [24]; 2.15 in experiment [25]; -1.01 in experiment [26]; -1.6 in experiment [27]; -1.25 in [28]; -0.445 in experiment [29]. Besides, the interaction score in [30] is -1.18; in experiment [31] it was -0.966; in [32], -0.657; in experiment [33], -1.18; in [34], -1.15; in experiment [35], 2.28. The interaction score in experiment [36] was 1.59; in experiment [37], 1.31; in experiment [38], 1.84; in experiment [39] it was -1.77; in experiment [40] it was 1.18.
